Laboratory results: article PMC11342371

Key:
[1] = molecular target: human C-reactive protein (human) (UniProt P02741); experiment: mass photometry; nanohole-PEG surface (10 ug cm^-2 of 100 nm SNPs), PBS pH 7.2, across different analyte concentrations (500 nM shown), at equilibrium; decamer to pentamers, KD = [monomer]^2/[dimer] with the pentamer as the monomer
[2] = molecular target: human C-reactive protein (human) (UniProt P02741); experiment: native MS; 0.5, 1 and 7 uM, ammonium acetate; decamer to pentamers
[3] = molecular target: human C-reactive protein (human) (UniProt P02741); experiment: mass photometry; in ammonium acetate; decamer to pentamers

Kd [1]: 2600 nM
stoichiometry N [1]: 10
Kd [2]: 2460 nM
Kd [3]: 3400 nM
Substance: human C-reactive protein (from UniProt P02741 19-224) (natural protein)
